According to publication PMC8442553 (Science (New York, N.Y.), 2019):

T1: Rsc7 (yeast, UniProt P32832 1-435)
T1 sequence: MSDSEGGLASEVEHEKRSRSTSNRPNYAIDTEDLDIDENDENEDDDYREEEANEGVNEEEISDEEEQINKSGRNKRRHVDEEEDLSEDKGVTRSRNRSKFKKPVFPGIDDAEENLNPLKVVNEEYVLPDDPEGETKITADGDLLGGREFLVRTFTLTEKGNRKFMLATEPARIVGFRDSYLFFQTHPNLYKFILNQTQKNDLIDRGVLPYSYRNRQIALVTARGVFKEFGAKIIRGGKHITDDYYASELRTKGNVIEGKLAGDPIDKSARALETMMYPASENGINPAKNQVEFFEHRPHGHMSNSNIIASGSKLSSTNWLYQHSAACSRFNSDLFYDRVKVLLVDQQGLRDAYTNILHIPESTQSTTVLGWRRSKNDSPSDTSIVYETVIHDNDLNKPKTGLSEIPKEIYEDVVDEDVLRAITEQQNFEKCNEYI

T2: Sth1 (yeast, UniProt P32597 1-1359)
T2 sequence: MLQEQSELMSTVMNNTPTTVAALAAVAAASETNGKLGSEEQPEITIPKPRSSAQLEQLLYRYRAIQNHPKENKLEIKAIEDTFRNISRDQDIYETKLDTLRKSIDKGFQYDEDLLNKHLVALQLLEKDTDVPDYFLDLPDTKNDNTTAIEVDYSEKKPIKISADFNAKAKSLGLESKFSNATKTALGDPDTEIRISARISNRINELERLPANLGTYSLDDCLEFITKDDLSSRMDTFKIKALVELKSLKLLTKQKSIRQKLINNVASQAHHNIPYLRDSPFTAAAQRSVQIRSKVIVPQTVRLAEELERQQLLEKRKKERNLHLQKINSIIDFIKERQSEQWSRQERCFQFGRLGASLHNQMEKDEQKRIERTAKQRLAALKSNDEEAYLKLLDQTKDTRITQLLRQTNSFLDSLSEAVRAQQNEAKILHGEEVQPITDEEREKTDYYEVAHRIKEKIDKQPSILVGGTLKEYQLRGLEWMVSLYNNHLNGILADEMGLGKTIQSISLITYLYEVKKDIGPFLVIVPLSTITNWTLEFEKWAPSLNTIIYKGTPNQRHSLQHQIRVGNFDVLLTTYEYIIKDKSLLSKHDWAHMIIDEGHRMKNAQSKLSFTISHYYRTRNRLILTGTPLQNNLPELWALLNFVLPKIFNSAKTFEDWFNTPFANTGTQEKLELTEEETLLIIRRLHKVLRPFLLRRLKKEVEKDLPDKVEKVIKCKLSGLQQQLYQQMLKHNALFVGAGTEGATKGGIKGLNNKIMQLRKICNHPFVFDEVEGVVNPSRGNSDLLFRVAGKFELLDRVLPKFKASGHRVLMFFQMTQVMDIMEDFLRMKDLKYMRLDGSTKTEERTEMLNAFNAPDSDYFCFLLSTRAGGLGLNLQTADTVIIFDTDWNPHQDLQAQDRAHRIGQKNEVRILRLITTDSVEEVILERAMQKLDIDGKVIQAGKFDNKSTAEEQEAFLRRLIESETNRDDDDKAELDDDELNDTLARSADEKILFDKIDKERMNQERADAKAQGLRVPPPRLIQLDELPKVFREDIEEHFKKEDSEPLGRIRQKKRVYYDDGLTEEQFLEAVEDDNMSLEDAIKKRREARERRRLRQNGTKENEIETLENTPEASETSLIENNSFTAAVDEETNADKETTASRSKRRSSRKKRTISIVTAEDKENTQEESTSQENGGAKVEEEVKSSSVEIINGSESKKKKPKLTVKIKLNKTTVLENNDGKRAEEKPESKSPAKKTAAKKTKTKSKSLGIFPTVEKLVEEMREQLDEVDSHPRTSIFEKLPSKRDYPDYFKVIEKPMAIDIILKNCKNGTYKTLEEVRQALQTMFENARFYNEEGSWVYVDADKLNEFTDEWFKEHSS

T3: Rsc9 (yeast, UniProt Q03124 1-581)
T3 sequence: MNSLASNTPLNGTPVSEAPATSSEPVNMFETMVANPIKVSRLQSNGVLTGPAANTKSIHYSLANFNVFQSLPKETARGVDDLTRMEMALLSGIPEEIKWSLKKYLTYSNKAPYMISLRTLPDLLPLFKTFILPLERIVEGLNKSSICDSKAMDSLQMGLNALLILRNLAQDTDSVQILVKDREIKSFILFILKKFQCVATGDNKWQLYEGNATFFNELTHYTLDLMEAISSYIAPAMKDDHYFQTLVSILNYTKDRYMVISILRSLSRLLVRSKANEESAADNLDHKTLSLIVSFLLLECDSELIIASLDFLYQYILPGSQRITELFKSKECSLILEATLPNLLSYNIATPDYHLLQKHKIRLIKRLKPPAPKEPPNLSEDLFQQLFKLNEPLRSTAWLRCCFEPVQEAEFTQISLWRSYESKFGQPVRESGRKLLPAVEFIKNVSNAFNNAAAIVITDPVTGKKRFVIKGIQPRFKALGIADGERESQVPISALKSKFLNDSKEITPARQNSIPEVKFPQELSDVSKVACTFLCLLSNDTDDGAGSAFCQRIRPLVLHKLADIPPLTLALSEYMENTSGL

T4: Rsc58 (yeast, UniProt Q07979 1-502)
T4 sequence: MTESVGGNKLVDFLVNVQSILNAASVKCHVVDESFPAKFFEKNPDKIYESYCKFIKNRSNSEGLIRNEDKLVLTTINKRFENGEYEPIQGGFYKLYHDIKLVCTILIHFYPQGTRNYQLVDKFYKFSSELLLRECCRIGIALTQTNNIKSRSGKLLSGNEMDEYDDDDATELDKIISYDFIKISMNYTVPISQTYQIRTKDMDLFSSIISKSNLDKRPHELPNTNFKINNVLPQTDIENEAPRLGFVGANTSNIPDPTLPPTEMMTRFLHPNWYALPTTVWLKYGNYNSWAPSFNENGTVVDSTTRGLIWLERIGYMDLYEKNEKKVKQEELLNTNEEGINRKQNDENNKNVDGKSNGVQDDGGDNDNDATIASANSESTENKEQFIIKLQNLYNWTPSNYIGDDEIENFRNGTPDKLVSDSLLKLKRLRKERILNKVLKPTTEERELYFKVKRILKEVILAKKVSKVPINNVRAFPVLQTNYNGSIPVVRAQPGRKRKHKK

B1: Sfh1 (natural protein, yeast)
chain: MSHQNQLIPQAYISNFHNRLTNEDDGIPIFTMAQQTRQHKRAKVVNYAEYDNDLFDEFNMNGSNFNNADTHYKDNAVSHENTPALTNGVTMDGSEYNVLENMNGADSIISNNKYDAGSNMVVESLSGLNSNNNASNGPSNKAQAQDIGNAVLPDLQDQHHNPFNILRYPKIRDTFINGKVVSPYRLNTDQETKANANSGEAIMIPITLDIEHMGHTIKDQFLWNYNDDSISPEEFASIYCKDLDMTSATLQTQIANIIKEQLKDLENIAATEIMSDLHVIINLTCNLQDRFFEDNFQWNLNDKSLTPERFATSIVQDLGLTREFIPLISQSLHETILKIKKDWVDGHLIQDHVPNDAAFGYLSGIRLDIDELGSNWCPRVEILTKEEIQKREIEKERNLRRLKRETDRLSRRGRRRLDDLETTMRM
B2: Rsc8 (natural protein, yeast)
chain: MSDTEKDKDVPMVDSHEATEEPPTTSTNTPSFPHLAQEQAKEESATLGAEVAHKKINYEQEAQKLEEKALRFLAKQTHPVIIPSFASWFDISKIHEIEKRSNPDFFNDSSRFKTPKAYKDTRNFIINTYRLSPYEYLTITAVRRNVAMDVASIVKIHAFLEKWGLINYQIDPRTKPSLIGPSFTGHFQVVLDTPQGLKPFLPENVIKQEVEGGDGAEPQVKKEFPVNLTIKKNVYDSAQDFNALQDESRNSRQIHKVYICHTCGNESINVRYHNLRARDTNLCSRCFQEGHFGANFQSSDFIRLENNGNSVKKNWSDQEMLLLLEGIEMYEDQWEKIADHVGGHKRVEDCIEKFLSLPIEDNYIREVVGSTLNGKGGDSRDGSVSGSKLMECVNDAVQTLLQGDDKLGKVSDKSREISEKYIEESQAIIQELVKLTMEKLESKFTKLCDLETQLEMEKLKYVKESEKMLNDRLSLSKQILDLNKSLEELNVSKKLVLISEQVDSGIQLVEKDQEGDDEDGNTATGHGVKRVGKEGEEVGEGDSIAKLQPQVYKPWSL
B3: Rsc6 (natural protein, yeast)
chain: MVTQTNPVPVTYPTDAYIPTYLPDDKVSNLADLKKLIEMDSRLDLYLTRRRLDTSINLPTNTKTKDHPPNKEMLRIYVYNTTESSPRSDSGTPADSGKTTWTLRIEGKLLHESANGKHPFSEFLEGVAVDFKRLKPLGMGKKRKRDSSLSLPLNLQQPEYNDQDSTMGDNDNGEDEDSAEAESREEIVDALEWNYDENNVVEFDGIDIKRQGKDNLRCSITIQLRGVDGGKVQYSPNLATLIGMQTGSVNDAVYSIYKYILINNLFVTEQTEAQDGSNDAEDSSNENNNKNGAGDDDGVEGSTPKDKPELGEVKLDSLLQKVLDTNAAHLPLMNVVQTVNKLVSPLPPIILDYTIDLSKDTTYGATTLDVDVSHILHQPQPQPNLQKEEETDAEDTAKLREITKLALQLNSSAQKYQFFHELSLHPRETLTHYLWSSKQNELVLQGDQYFNEDAARTSDIYSNNNNDRSLMGNISLLYSQGRL

Legend:
Test in all cases: cryo-EM structure
Rsc7 = target: T1, Rsc7
Sth1 = target: T2, Sth1
cryo-EM structure = target: the molecule itself
Rsc9 = target: T3, Rsc9
Rsc8 = target: B2
Rsc58 = target: T4, Rsc58

Binder: B1
binding result (Rsc7): binds

Binder: B2
binding result (Sth1): binds
binding result (cryo-EM structure): binds

Binder: B3
binding result (Rsc9): binds
binding result (Rsc8): binds
binding result (Rsc58): binds
